Consider 1 substance from US20230173039A1.

The target of this assay is amyloid beta-protein 40 (Aβ40) (human) (UniProt P05067).

“plasminogen isolated and purified from plasma of a human donator (enzyme)”: the Aβ40 content by Tricine-SDS-PAGE with quantitative scanning (solvent control defined as 100%) worked out at 74.8%.
